Measured values published in patent publication EP1417974A1.

Target: CD44v6 on antigen-positive FaDu cells (human) (UniProt P16070)
Assay: flow cytometry (FACS) on antigen-positive FaDu cells, FITC-labeled anti-human IgG detection, on ice

UniProt P16070, sequence (P16070 21-742): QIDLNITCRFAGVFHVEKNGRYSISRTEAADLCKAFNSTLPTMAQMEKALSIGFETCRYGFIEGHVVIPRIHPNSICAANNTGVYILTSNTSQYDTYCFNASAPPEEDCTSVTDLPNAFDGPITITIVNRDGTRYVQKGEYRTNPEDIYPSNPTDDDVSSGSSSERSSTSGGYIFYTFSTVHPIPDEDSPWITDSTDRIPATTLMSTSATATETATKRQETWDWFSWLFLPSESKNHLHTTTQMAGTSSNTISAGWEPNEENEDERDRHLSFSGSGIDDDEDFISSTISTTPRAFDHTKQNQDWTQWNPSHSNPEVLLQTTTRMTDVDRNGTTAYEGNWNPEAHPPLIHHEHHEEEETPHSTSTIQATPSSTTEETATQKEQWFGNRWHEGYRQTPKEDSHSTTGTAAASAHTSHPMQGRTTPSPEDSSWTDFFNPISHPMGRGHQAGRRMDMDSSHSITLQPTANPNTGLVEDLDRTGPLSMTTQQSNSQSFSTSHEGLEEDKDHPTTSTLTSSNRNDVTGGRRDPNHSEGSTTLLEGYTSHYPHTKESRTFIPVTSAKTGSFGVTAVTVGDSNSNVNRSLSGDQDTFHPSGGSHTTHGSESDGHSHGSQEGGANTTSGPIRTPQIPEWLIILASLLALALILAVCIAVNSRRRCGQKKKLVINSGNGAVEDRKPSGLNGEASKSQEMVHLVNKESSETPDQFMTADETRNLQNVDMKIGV

BIWI 1 (from UniProt P0DOX5 2-449)
Kd: 1.8 nM

B1: BIWA 4 (antibody, human IgG1, kappa, V domains shown)
VH: EVQLVESGGGLVKPGGSLRLSCAASGFTFSSYDMSWVRQAPGKGLEWVSTISSGGSYTYYLDSIKGRFTISRDNAKNSLYLQMNSLRAEDTAVYYCARQGLDYWGRGTLVTVSS
VL: EIVLTQSPATLSLSPGERATLSCSASSSINYIYWYQQKPGQAPRLLIYLTSNLASGVPARFSGSGSGTDFTLTISSLEPEDFAVYYCLQWSSNPLTFGGGTKVEIKR
Kd: 1 nM
